{"source": "patent US20050196797", "key": {"[1]": {"system": "SMGBP1 (SMG Binding Protein 1)", "sequence (chain, as listed by the source)": "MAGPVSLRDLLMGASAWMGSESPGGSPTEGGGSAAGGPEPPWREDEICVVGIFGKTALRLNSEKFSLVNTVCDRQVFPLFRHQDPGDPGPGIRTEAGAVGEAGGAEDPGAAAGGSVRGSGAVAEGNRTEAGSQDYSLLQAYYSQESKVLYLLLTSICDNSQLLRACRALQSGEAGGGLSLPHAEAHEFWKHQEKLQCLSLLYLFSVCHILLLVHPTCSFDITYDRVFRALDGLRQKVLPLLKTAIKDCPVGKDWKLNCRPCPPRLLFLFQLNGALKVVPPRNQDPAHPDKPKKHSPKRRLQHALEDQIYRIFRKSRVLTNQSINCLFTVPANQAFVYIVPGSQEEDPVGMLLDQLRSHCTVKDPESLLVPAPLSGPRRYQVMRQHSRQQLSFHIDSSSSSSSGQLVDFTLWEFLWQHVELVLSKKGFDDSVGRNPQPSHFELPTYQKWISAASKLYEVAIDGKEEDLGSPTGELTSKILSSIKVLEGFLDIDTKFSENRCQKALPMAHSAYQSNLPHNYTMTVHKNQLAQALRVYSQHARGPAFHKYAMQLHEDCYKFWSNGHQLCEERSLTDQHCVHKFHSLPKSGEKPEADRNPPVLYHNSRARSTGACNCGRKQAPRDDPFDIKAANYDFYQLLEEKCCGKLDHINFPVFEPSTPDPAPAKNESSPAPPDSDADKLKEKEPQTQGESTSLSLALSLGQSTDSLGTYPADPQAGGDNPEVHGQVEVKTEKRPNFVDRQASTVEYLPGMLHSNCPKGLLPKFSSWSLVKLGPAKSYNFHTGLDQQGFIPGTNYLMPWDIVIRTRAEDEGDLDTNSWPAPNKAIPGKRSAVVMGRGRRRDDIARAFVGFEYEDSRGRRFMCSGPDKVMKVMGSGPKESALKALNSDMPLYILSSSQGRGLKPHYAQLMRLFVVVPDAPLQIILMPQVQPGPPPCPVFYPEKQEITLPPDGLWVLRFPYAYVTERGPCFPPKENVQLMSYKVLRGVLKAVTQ"}, "[2]": {"system": "protein having a molecular weight of 70 kDa (p70)"}}, "data": [{"substance": "human SMG-1 (hSMG-1)", "values": [{"measurement": "phosphorylation in the hSMG-1 immunoprecipitate (32P autoradiography)", "setting": "[1]", "result": "a protein having a molecular weight of 130 kDa (p130) and a protein having a molecular weight of 70 kDa (p70), were detected as phosphorylated proteins. The patterns of phosphorylation thereof accorded exactly with those of autophosphorylation of hSMG-1."}, {"measurement": "phosphorylation in the hSMG-1 immunoprecipitate (32P autoradiography)", "setting": "[2]", "result": "a protein having a molecular weight of 130 kDa (p130) and a protein having a molecular weight of 70 kDa (p70), were detected as phosphorylated proteins. The patterns of phosphorylation thereof accorded exactly with those of autophosphorylation of hSMG-1."}]}]}
